T1: FVIII (as used in the competition ELISA of Example 21; form not stated) (UniProt P00451 20-2351, limits assumed)
T1 sequence (looked up): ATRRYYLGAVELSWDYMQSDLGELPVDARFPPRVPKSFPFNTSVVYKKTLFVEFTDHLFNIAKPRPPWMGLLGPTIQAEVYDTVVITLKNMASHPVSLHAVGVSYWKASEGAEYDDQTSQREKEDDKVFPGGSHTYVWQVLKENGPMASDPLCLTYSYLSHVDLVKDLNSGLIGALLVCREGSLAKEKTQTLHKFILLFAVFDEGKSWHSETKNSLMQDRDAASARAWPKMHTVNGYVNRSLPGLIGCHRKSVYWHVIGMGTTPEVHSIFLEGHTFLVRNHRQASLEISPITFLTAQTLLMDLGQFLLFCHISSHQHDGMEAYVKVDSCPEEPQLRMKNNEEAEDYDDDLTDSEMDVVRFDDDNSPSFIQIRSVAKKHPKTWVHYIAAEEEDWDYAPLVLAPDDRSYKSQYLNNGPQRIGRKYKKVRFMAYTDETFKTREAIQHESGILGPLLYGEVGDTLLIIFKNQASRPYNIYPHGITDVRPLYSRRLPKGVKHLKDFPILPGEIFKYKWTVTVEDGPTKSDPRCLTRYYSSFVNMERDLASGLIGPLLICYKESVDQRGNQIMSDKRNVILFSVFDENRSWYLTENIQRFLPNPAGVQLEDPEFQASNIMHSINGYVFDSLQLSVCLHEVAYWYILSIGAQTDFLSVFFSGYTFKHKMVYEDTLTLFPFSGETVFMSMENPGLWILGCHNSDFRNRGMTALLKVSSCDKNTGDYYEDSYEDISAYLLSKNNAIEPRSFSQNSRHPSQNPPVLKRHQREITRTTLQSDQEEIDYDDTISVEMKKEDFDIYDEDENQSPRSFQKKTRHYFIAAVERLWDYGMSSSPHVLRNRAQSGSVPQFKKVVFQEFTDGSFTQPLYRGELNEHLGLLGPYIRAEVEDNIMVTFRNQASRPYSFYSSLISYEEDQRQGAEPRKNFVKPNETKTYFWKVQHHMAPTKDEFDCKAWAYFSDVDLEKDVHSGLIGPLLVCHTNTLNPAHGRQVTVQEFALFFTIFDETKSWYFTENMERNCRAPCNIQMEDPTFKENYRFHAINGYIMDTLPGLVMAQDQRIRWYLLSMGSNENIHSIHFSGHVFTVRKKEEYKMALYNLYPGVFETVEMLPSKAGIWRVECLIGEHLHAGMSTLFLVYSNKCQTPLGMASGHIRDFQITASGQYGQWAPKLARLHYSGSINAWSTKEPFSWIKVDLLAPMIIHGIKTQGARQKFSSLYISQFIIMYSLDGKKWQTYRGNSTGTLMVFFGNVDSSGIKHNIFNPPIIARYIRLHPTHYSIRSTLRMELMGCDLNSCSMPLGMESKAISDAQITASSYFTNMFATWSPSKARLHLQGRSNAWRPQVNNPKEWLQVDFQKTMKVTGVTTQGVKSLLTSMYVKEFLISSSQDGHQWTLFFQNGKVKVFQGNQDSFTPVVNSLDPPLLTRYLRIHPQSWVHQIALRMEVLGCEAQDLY

T2: Fluorescent labelled FVIII (Oregon green-FVIII) (UniProt P00451 20-2351, limits assumed, Oregon green label)
T2 sequence (looked up): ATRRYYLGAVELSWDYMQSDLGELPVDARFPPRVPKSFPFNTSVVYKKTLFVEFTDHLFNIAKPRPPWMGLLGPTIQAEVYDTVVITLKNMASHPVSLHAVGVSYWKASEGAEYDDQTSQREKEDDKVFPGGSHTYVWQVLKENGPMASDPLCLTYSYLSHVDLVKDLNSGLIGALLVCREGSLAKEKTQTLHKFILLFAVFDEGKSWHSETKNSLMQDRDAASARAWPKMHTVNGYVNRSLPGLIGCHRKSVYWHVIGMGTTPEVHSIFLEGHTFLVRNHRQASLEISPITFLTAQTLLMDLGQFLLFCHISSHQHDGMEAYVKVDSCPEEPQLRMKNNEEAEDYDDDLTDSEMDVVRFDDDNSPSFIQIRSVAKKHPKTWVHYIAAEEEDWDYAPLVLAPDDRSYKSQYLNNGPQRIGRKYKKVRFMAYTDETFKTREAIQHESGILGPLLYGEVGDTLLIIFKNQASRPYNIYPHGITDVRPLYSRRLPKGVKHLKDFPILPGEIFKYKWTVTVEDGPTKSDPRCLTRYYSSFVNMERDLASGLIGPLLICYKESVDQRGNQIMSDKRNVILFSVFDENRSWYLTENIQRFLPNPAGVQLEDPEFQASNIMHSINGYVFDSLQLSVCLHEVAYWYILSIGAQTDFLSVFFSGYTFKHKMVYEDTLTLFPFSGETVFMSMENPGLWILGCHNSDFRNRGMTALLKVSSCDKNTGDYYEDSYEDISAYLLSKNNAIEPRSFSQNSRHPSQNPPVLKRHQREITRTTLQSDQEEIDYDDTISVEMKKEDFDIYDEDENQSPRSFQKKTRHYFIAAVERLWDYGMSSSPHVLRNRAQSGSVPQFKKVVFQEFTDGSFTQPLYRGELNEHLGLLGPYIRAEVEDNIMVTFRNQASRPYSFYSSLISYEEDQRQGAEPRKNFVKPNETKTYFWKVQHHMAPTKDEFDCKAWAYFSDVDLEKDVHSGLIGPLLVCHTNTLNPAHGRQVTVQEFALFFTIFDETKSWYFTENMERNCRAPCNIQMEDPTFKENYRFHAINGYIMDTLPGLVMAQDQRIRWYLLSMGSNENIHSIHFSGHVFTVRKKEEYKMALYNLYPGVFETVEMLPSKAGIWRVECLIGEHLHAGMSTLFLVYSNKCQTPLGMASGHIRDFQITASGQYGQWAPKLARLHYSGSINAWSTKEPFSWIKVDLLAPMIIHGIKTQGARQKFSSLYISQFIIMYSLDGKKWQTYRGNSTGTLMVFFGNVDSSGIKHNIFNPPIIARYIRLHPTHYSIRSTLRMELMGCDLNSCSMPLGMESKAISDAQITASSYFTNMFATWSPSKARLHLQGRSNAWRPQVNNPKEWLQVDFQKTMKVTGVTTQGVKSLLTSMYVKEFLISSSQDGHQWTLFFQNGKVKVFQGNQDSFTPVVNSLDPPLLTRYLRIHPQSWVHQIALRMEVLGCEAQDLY

T3: FVIII (N8, turoctocog alfa), B domain truncated FVIII (human, UniProt P00451 20-2351)
T3 construct: also called F8; F8-500
T3 sequence: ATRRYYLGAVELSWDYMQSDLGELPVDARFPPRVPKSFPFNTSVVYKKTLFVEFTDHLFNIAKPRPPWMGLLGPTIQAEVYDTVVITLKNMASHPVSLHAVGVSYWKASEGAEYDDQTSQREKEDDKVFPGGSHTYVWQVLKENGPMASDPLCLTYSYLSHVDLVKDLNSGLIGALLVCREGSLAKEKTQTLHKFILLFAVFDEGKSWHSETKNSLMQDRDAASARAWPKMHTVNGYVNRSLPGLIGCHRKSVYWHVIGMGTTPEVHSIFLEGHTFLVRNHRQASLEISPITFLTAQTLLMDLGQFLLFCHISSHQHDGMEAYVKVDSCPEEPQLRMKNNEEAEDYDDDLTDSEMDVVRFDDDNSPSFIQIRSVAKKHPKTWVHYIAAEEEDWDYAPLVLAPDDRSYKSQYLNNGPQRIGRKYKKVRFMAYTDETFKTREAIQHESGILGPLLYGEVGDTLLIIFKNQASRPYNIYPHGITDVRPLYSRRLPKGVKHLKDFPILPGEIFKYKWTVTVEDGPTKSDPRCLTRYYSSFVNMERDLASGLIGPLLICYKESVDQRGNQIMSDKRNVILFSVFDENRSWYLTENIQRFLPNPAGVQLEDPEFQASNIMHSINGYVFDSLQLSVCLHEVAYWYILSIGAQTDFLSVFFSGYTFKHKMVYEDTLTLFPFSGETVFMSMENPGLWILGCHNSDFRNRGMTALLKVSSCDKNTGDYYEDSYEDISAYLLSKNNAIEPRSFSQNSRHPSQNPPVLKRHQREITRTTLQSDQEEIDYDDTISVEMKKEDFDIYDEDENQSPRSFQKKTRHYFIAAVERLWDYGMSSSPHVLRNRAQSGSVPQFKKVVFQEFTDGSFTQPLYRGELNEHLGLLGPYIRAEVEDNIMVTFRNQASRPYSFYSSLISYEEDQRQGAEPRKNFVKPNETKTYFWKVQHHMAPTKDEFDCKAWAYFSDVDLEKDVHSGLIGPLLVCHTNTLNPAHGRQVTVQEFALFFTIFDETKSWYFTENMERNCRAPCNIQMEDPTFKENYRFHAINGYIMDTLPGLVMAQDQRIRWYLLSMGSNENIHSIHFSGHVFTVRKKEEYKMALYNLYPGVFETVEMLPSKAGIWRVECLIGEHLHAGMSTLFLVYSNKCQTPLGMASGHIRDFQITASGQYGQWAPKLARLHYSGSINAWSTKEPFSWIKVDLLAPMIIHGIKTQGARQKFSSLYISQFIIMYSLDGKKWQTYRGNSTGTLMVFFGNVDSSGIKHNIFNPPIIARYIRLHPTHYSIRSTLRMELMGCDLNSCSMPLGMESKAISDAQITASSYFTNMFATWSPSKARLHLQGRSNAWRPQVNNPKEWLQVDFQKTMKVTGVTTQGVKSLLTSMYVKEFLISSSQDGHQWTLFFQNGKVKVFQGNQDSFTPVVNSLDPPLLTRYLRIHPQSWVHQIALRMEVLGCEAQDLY


Legend:
[1] = target: T1, FVIII (as used in the competition ELISA …); assay: competition ELISA; competitor coated human VWF; FVIII 1 nM pre-incubated with the fragment
Description: In order to investigate the binding of the different VWF fragments to FVIII the following method is used. Briefly, human VWF is coated in a microtiterplate and incubated overnight at 4° C. After blocking, a solution with pre-incubated FVIII (1 nM) and VWF/VWF-fragment is added to the plate, followed by detection with biotinylated anti FVIII antibody and streptavidin-peroxidase S-POD (1:20000). The absorbance is measured at 450/620 nm.

[2] = target: T2, Fluorescent labelled FVIII (Oregon …); assay: cell-based or functional assay
[3] = target: T3, FVIII (N8, turoctocog alfa), B domain …; assay: Isothermal titration calorimetry at 20 °C, VWF fragment in the syringe titrated into FVIII (turoctocog alfa) in the cell, single-site fit; 50 mM Hepes pH 7.4, 150 mM NaCl, 10 mM CaCl2
Description: (§1) All protein samples are dialyzed in 50 mM Hepes pH 7.4, 150 mM NaCl, 10 mM CaCl₂ buffer. Each iTC experiment involves filling the iTC cell with FVIII (approximately 250 μL) and the syringe with VWF variants (approximately 40 μL). Temperature is set as required and the protein sample is allowed to equilibrate under given experimental conditions (approximately 10 minutes). Typically 17-20 injections (of 2-2.5 μL) of VWF variants into cell, containing FVIII, are performed. The first injection is always of 0.2 μL and is discarded from the final data analysis in order to account for diffusion during equilibration step. Stirring speed is set between 700-1000 rpm. Filter period for data collection is 5 sec with a high feedback mode setting. Each titration is spaced by 120 sec. Appropriate control experiments are performed. Raw data is processed to set baseline and integrated to obtain a final isotherm. This binding isotherm is fit to a single-site model to yield Kd, stoichiometry (n), ΔH, and ΔS values to complete characterization of VWF variant binding to FVIII.

[4] = target: T3, FVIII (N8, turoctocog alfa), B domain …; assay: isothermal titration calorimetry at 20° C., VWF variant injected into FVIII
Description: as §1

[5] = target: T3, FVIII (N8, turoctocog alfa), B domain …; assay: isothermal titration calorimetry at 20° C., VWF variant injected into FVIII; ITC at 20° C.
Description: as §1

| Binder | IC50 [1] [nM] | IC50 (nM), FVIII uptake in dendritic cells [2] [nM] | Ka [3] [M⁻¹] | stoichiometry [4] | ΔH [4] [kcal/mol] | ΔS [4] [cal/mol/deg] | Kd [5] [nM] |
| --- | --- | --- | --- | --- | --- | --- | --- |
| VWF(764-1045)-ALA-HPC4 monomer (other, also called TIL′/E′/VWD3 III) SLSCRPPMVKLVCPADNLRAEGLECTKTCQNYDLECMSMGCVSGCLCPPGMVRHENRCVALERCPCFHQGKEYAPGETVKIGCNTCVCQDRKWNCTDHVCDATCSTIGMAHYLTFDGLKYLFPGECQYVLVQDYCGSNPGTFRILVGNKGCSHPSVKCKKRVTILVEGGEIELFDGEVNVKRPMKDETHFEVVESGRYIILLLGKALSVVWDRHLSISVVLKQTYQEKVCGLCGNFDGIQNNDLTSSNLQVEEDPVDFGNSWKVSSQCADTRKVPLDSSPATALAEDQVDPRLIDGK | 2000 |  |  |  |  |  |  |
| VWF(764-1041)-ALA-HPC4 monomer (other, also called 2306; TIL′/E′/VWD3 II) SLSCRPPMVKLVCPADNLRAEGLECTKTCQNYDLECMSMGCVSGCLCPPGMVRHENRCVALERCPCFHQGKEYAPGETVKIGCNTCVCQDRKWNCTDHVCDATCSTIGMAHYLTFDGLKYLFPGECQYVLVQDYCGSNPGTFRILVGNKGCSHPSVKCKKRVTILVEGGEIELFDGEVNVKRPMKDETHFEVVESGRYIILLLGKALSVVWDRHLSISVVLKQTYQEKVCGLCGNFDGIQNNDLTSSNLQVEEDPVDFGNSWKVSSQCADTRKVPLDSALAEDQVDPRLIDGK | 2200 | 570 |  |  |  |  |  |

More lines, in order of falling IC50 [1], values ahead:

| IC50 [1] [nM] | IC50 (nM), FVIII uptake in dendritic cells [2] [nM] | Ka [3] [M⁻¹] | stoichiometry [4] | ΔH [4] [kcal/mol] | ΔS [4] [cal/mol/deg] | Kd [5] [nM] | Binder |
| --- | --- | --- | --- | --- | --- | --- | --- |
| 2000 |  | 3.02e+06 | 1.14 | -5.82 | 9.8 | 330 | VWF(764-865)-ALA-HPC4 monomer (other, also called TIL′E′) SLSCRPPMVKLVCPADNLRAEGLECTKTCQNYDLECMSMGCVSGCLCPPGMVRHENRCVALERCPCFHQGKEYAPGETVKIGCNTCVCQDRKWNCTDHVCDAALAEDQVDPRLIDGK |
| 28 |  |  |  |  |  |  | VWF(764-1198)-C1099/1142S-ALA-HPC4 monomer (other, also called 0003; TIL′/E′/VWD3/C8-3/TIL-3) SLSCRPPMVKLVCPADNLRAEGLECTKTCQNYDLECMSMGCVSGCLCPPGMVRHENRCVALERCPCFHQGKEYAPGETVKIGCNTCVCQDRKWNCTDHVCDATCSTIGMAHYLTFDGLKYLFPGECQYVLVQDYCGSNPGTFRILVGNKGCSHPSVKCKKRVTILVEGGEIELFDGEVNVKRPMKDETHFEVVESGRYIILLLGKALSVVWDRHLSISVVLKQTYQEKVCGLCGNFDGIQNNDLTSSNLQVEEDPVDFGNSWKVSSQCADTRKVPLDSSPATCHNNIMKQTMVDSSCRILTSDVFQDCNKLVDPEPYLDVCIYDTCSCESIGDCASFCDTIAAYAHVCAQHGKVVTWRTATLCPQSCEERNLRENGYESEWRYNSCAPACQVTCQHPEPLACPVQCVEGCHAHCPPGKILDELLQTCVDPEDCPVALAEDQVDPRLIDGK |
